± gives the uncertainty stated by the source.
Experiment: amyloid nucleation score (Sup35N fusion, yeast selection) (log enrichment); library NNK1; higher = more nucleation; inactive = no reads after selection
Summary of the method: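 Yeast lacking psi expressed peptides of 20 random codons fused to Sup35N, received 100 μM copper sulfate for 24 hours, and were then grown for 7 days at 30°C on medium lacking adenine and uracil. Illumina sequencing of input and output plasmid inserts provided the reads. Nucleation scores are DiMSum log enrichments of output over input, centred on the mode of non-aggregating sequences. Any sequence with under 100 input reads was excluded.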

Row | Substance | amyloid nucleation score
1 | NFFQWPSVETWTASIN | -0.144 ± 0.41
2 | NFINVVVWQEGYLRVIHTSV | 0.537 ± 1.1
3 | NFKNKIMGALS | -0.548 ± 2.1
4 | NFKVYPSGCKEECAYVLLSL | 3.87 ± 0.079
5 | NFRKL | inactive
6 | NFRWILSSAMDAIFPYVAFV | 1.52 ± 0.78
7 | NGCFIAFLTMFTYFTCTRVS | -0.76 ± 0.8
8 | NGEIVYASWTCDPSIGRRGK | 0.207 ± 0.97
9 | NGGYYAMGVGFLYVFALCHD | 2.05 ± 0.27
10 | NGKEDKTCLWSVQPYCKSCE | -0.475 ± 1.2
11 | NGLFAYVRM | 0.505 ± 0.27
12 | NGLSRYKKDLGLVDWYFGQM | 0.744 ± 0.37
13 | NGWPWGERSALRMG | -0.573 ± 0.95
14 | NGWTFYCSCSWCGI | 8.306 ± 0.049
15 | NGYWLSFWTSRY | 1.63 ± 0.46
16 | NHFLRSNNKYLSWGKTYIAP | -0.846 ± 2.4
17 | NHRNVMRQIDASVMGVYNTW | 0.766 ± 1.2
18 | NHSNTCEWRSCRP | 0.551 ± 0.61
19 | NIANSWYW | -0.537 ± 1.9
20 | NIGNVMRSCSKVYSLSLKQL | 0.585 ± 0.31
21 | NIHSEAPISPSMPGLREVTA | 0.219 ± 0.32
22 | NIKDRILYNVYMRGMCIYCL | 6.137 ± 0.053
23 | NISSNRCVNNVAPSDSSTYF | -0.091 ± 0.69
24 | NIYVGSYTLYTTN | 5.386 ± 0.047
25 | NKLCTR | inactive

Row | Substance | amyloid nucleation score
26 | NLECFTCFFLYTIDMNLKP | 4.94 ± 0.053
27 | NLHFVGTCHTFSSAYNRRET | -0.95 ± 2.7
28 | NLICDLGNSVTMSVRDDQTV | -0.013 ± 0.36
29 | NLILDQVNTYSLCSTIFI | 7.291 ± 0.058
30 | NLLYTY | 1 ± 0.53
31 | NLRLAWRGQTVCRETHKRPF | 2.37 ± 0.13
32 | NLRQVCNSAFVVGSVIFFWV | -0.318 ± 0.69
33 | NLTGGCLGVRWDMVECAWYY | 3.77 ± 0.068
34 | NLTRSVHVMRQVIVQHFIGN | 0.424 ± 0.72
35 | NLTSVPYMPLECDYHARSYF | -1.55 ± 1.2
36 | NMALCTCGLNPGNL | 0.003 ± 0.46
37 | NMFMIV | -1.05 ± 1.3
38 | NMIESIVDISTPFIHGMIND | 0.295 ± 1.1
39 | NMSGMVLGLVLTATWSFMSV | 0.588 ± 0.45
40 | NMTPFGYIHFTL | 0.644 ± 1
41 | NMTSYSIYGELE | -0.341 ± 0.21
42 | NNCSWIIGHRVVPTSRGE | -0.329 ± 0.45
43 | NPDDVFMSAVWGYF | -0.127 ± 0.19
44 | NPKSFNGCVFRLGGVPYFVS | 0.076 ± 0.36
45 | NPLHTMFTLYEIRQWRLF | -0.048 ± 0.3
46 | NPMLLPSEPSS | -0.181 ± 0.42
47 | NPPGGDIYEC | -0.721 ± 0.53
48 | NPPVWPSTFQE | -0.159 ± 0.58
49 | NPRLCPKDMRGRPQEKRVPQ | -0.345 ± 1.7
50 | NPVPGARKNRVHAGSKSDTG | 0.075 ± 0.68

Row | Substance | amyloid nucleation score
51 | NREVYKMLLGCFSIHISCNR | inactive
52 | NRFTHHSIR | 1.19 ± 0.84
53 | NRIFCLYSFCCFHENWVGLY | 4.96 ± 0.095
54 | NRIMY | -0.09 ± 0.2
55 | NRIRRWWTFRVLGDSQKCVD | 0.411 ± 1
56 | NRNERVTHSSQFSIGFEERM | 1.14 ± 0.57
57 | NRQKFSDVSYCTMTMFRVAH | -0.61 ± 1.7
58 | NRRMFV | -1.13 ± 0.48
59 | NRRSSKLIN | inactive
60 | NRTWGYLSCALRNPSMTT | -0.305 ± 0.47
61 | NRVLLSEAKSQFIG | 0.366 ± 0.59
62 | NSCNDRFHLAMRQGF | 0.067 ± 0.84
63 | NSDKLPRCHLSLSYV | 0.994 ± 0.28
64 | NSELFIGGDYLDIDST | 0.591 ± 0.43
65 | NSFKCFNDRNEVALMITHRE | -0.526 ± 0.77
66 | NSFSDSHRWKPGRRNRCKRG | 1.07 ± 0.97
67 | NSIFLLSYLKLIFAVYA | inactive
68 | NSILVNVYDKTFRVGLRGRN | inactive
69 | NSIPLDLSNTLLLCARC | -0.02 ± 0.49
70 | NSNMGCSVI | -0.596 ± 1
71 | NSRKSAGHPSLESGSLLCYA | -0.041 ± 0.5
72 | NSRMRFILGTFY | 1.63 ± 0.41
73 | NSSMVG | -1.16 ± 1.7
74 | NSVAGSYGVWQWGDSRSLPP | 0.262 ± 0.43
75 | NSYKNYCVLCECRC | 4.21 ± 0.07

Row | Substance | amyloid nucleation score
76 | NSYRFSLFQ | 1.32 ± 0.46
77 | NSYTCNMFDLVFCAYTIASI | 4.95 ± 0.057
78 | NSYVLVNCALLRLGRINVFY | 7.56 ± 0.077
79 | NTLYVGWCMGFV | -0.354 ± 0.3
80 | NTMPSGWNRYTVYG | -0.634 ± 0.44
81 | NTQRTLIFSPMFVSRRLNLA | 2.64 ± 0.16
82 | NTRAPFLKHLNYFAYTTFII | 0.123 ± 0.22
83 | NTSVLLTVLVG | 0.822 ± 0.46
84 | NTVCSAMRW | 4.14 ± 0.091
85 | NTYGAGSLGITWQQVCLTYE | 0.767 ± 0.62
86 | NTYVYNDKGVRNIWKKLVYT | inactive
87 | NVDSRFD | -1.1 ± 0.81
88 | NVGGFQSLPEYNSYRMRAEQ | 0.26 ± 0.56
89 | NVLVQGFG | -0.017 ± 0.66
90 | NVMVTFFGCIRKWRSNWSQE | -0.016 ± 0.48
91 | NVPCRVLRFGHLSDIGIDCQ | 0.705 ± 0.9
92 | NVPIPRAFRDNRTL | 0.577 ± 0.5
93 | NVQGSHSCSISCYIMPGRAM | 5.56 ± 0.077
94 | NVRALILIKNCSPQMLRNEF | 5.07 ± 0.06
95 | NVRDLSMISLGAEVWGRIAV | 0.619 ± 0.81
96 | NWCVLALIN | 1.83 ± 0.43
97 | NWHVGIIGWRCMGHTQKYVN | 0.038 ± 0.22
98 | NWIGS | 1.44 ± 0.41
99 | NWNSR | 0.197 ± 0.64
100 | NWRQEYVFAY | -1.37 ± 2.4

Row | Substance | amyloid nucleation score
101 | NWSFEWWTSIAMEQ | -0.222 ± 0.42
102 | NWSHGLLTPNVCW | -0.573 ± 1.4
103 | NWVAYIPKDNVWVVRGKLKG | 0.753 ± 0.53
104 | NWVRLFQFILTRYSAFAHFR | -0.264 ± 0.34
105 | NYALGFRAAWIIRLLRWSVE | 0.254 ± 0.57
106 | NYEYRDYASDERLYGSGTML | 0.103 ± 0.37
107 | NYFTRFVTGDGLSFLMRVAT | 0.487 ± 0.82
108 | NYHFDWLRFFRHQREVGEVA | 0.4 ± 0.8
109 | NYIGYLYLFDFCEHDLCRCF | 6.62 ± 0.074
110 | NYQWIRIVIMYVLSMTASLS | inactive
111 | NYRSGVLELWYGRSMPWS | 0.327 ± 0.42
112 | NYTTSMNPLHFVACK | inactive
113 | NYVEVINNFHAFVRVLFEIL | 4.09 ± 0.15
114 | NYYDSRFGLHIVLELWVARL | 0.431 ± 0.2
115 | NYYFAKSLLHI | 1.27 ± 0.79
116 | NYYIRRTCMSTYYVRVLIKS | 0.522 ± 0.39
117 | PAGTGINLMICVARGGRTSG | 5.24 ± 0.1
118 | PAMLPLTAMFLLHGRYVLTP | -0.384 ± 0.8
119 | PATELLYNVCGGY | 0.044 ± 0.38
120 | PAVIILVIKMHGGIKGKDGR | -0.755 ± 0.44
121 | PCCWLPRGDTLDYTQHR | -0.065 ± 0.98
122 | PCKSCGLKFTRW | 0.235 ± 0.39
123 | PCLLCVYCMFL | 4.53 ± 0.055
124 | PCPSINWLMIINNR | 7.743 ± 0.051
125 | PCQFMASSYFHK | inactive

Row | Substance | amyloid nucleation score
126 | PCTGLRHGLHEFMSRYPDRD | 0.215 ± 0.97
127 | PDSARSECAGRVNLFVFRAR | 0.559 ± 0.32
128 | PDSFCFTMHLRKDEMMTSCK | -0.053 ± 1
129 | PEHRSGNKNMYLYRSRDDMN | 0.012 ± 0.7
130 | PERNNEYHVMLTRHRCHQGC | -1.41 ± 2.4
131 | PFCGTFVCGVGLWIRVNCNR | 0.728 ± 0.74
132 | PFFWFH | -0.482 ± 0.26
133 | PFIWDDLAETVLNK | 0.144 ± 0.27
134 | PFMLRSNGQWTSYINCIFIS | 7.865 ± 0.068
135 | PFNMVWMRKYHLRSR | -0.378 ± 0.34
136 | PFRNKNQMRWDMKM | 0.209 ± 0.37
137 | PFSGFLCSRVCAMVDKTLFS | inactive
138 | PFTVTKFRSYEISVINLPNW | 1.34 ± 0.11
139 | PFVARQHMNPFTVVGTNLCH | -0.376 ± 1.9
140 | PFVDVTRHRNSPS | 1.01 ± 1
141 | PFYLDSGADVTEPGHLGFYG | 0.158 ± 0.37
142 | PFYSETDDSRYIDVRRVFCF | inactive
143 | PGARSLLGSYYV | 0.058 ± 0.84
144 | PGNGTGVSTDGWVTLMHRRR | -0.709 ± 0.53
145 | PGPRVNHTRCVM | 1.52 ± 0.85
146 | PGRYSISGSEHMPVYLYTFH | inactive
147 | PGSWVTESLMTYRLCNLSNV | 0.455 ± 0.35
148 | PGWYFDTGSAPLQVSRRSGL | 0.66 ± 0.63
149 | PHFLGQFYSDVPCDCGLCWY | 0.193 ± 0.9
150 | PHGHVEYLIFFCNKPGSHGS | 1.49 ± 0.3

Row | Substance | amyloid nucleation score
151 | PHQPRILM | -0.387 ± 0.36
152 | PHSMYCGETWLSLDCQMQFM | -0.009 ± 0.74
153 | PHYFFS | -0.593 ± 0.39
154 | PIGLMGFRLSSICLSIRTLP | -0.469 ± 0.65
155 | PIMWCWHAVMSLS | inactive
156 | PISSGNCSTRLGSFSSWYSV | -0.485 ± 0.68
157 | PITILVVFNLQKY | 6.242 ± 0.046
158 | PKFCWAWSYALMGNKNLKSC | -0.715 ± 0.34
159 | PKMGSGHSWTRGQYICHS | -0.301 ± 1.1
160 | PLCPSGRNYVS | -0.159 ± 0.25
161 | PLFNNSRRCWGFGSLEDYLL | 0.213 ± 0.53
162 | PLLGASSRYDHAMLCGNRTF | 0.127 ± 0.33
163 | PLLMGEEFRYSFSLCYNTSS | -0.548 ± 1.7
164 | PLLVYIFNFHCYHLVNAMTV | 2.2 ± 0.32
165 | PLLYLPNWLISCFYLLF | 0.263 ± 0.53
166 | PLPVVA | 0.225 ± 0.5
167 | PMVRMQYDPYIKTMCVVWMR | -0.195 ± 1.2
168 | PNDSYNGL | -0.421 ± 0.46
169 | PNYEVDCDMFYSSFVGGFRV | 0.173 ± 1.4
170 | PPHIRKAGMRTFMGGLGLRG | 0.619 ± 0.67
171 | PQGSVGLEFKNYCVRAACGF | 0.078 ± 0.93
172 | PQKHSFAWHRMVATLALSYR | 1.17 ± 0.93
